Experimental data: patent US20260042848A1

Molecular target: native human AXL on non-transfected human cell lines (A-431, A-549, HeLa, MDA-MB-231, NCI-H1299) (human) (UniProt P30530)
Assay: cell-based or functional assay

Chain of native human AXL on non-transfected human cell lines (A-431, A-549, HeLa, MDA-MB-231, NCI-H1299) (human) (P30530 26-894 limits assumed): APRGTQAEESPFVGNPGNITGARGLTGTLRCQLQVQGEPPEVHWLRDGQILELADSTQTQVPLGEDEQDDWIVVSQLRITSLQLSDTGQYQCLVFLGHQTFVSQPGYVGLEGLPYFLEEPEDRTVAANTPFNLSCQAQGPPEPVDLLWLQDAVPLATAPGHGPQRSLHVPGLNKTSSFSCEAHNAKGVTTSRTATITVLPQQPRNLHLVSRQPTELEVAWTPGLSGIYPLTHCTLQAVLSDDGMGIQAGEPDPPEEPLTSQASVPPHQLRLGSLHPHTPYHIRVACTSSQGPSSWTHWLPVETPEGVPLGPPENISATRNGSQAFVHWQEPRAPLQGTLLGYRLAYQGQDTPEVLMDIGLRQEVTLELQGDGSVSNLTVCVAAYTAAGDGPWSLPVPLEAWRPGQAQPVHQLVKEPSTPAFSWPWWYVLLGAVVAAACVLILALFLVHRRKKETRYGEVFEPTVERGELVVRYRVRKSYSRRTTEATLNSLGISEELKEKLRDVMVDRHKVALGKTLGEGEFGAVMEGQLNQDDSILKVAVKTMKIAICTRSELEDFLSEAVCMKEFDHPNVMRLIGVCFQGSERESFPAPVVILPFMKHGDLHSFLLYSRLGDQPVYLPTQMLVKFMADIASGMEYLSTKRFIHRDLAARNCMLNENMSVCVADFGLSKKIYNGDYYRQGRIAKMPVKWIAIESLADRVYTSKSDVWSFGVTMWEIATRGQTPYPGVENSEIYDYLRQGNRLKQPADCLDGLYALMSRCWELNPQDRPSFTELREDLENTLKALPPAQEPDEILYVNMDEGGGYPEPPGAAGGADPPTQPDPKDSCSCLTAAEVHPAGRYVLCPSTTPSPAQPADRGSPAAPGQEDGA

AKT phosphorylation in H1299 cells without Gas6; APC-A Geometric mean; p-AKT APC + isotype control: 4380
AKT phosphorylation in H1299 cells without Gas6; Median: APC-A; p-AKT APC + isotype control: 4430
ERK phosphorylation in H1299 cells without Gas6; APC-A Geometric mean; p-ERK A647 + isotype control: 965
ERK phosphorylation in H1299 cells without Gas6; Median: APC-A; p-ERK A647 + isotype control: 274
Gas6 induced AKT phosphorylation in H1299 cells; APC-A Geometric mean; p-AKT APC + isotype control + Gas6: 8380
Gas6 induced AKT phosphorylation in H1299 cells; Median: APC-A; p-AKT APC + isotype control + Gas6: 9120
Gas6 induced ERK phosphorylation in H1299 cells; APC-A Geometric mean; p-ERK A647 + isotype control + Gas6: 1320
Gas6 induced ERK phosphorylation in H1299 cells; Median: APC-A; p-ERK A647 + isotype control + Gas6: 1020
Substance: isotype control (Example 5) (antibody)
